Results on one substance are retold here after paper PMC4293345.

The target in assay [1] is MBP-tagged NCS-1 (neuronal calcium sensor-1) (UniProt P62166). Description: pull-down.
The target is the same in assay [2]. Description: pull-down. The source holds these as a separate data set.

Read-outs that look alike come from different tables or passages of the source.

Sequence of MBP-tagged NCS-1 (neuronal calcium sensor-1) (P62166 whole entry): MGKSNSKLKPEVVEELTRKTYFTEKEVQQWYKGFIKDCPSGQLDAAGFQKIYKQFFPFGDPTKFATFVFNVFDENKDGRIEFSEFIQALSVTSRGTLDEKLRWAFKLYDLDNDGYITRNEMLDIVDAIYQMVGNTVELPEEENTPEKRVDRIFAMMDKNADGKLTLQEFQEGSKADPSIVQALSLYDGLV

For the substance “GST-tagged IM-AA mutant IQ domain of CaV2.1 (from UniProt P54282 1848-1964) (domain or fragment)”, the relative binding (ratio of IMAA-GST to NCS-1-MBP) amounted to 0.29 in assay [1] and 0.24 in assay [2].
